Laboratory results from publication PMC7261163 (Nucleic Acids Research, 2020).

Tests used:
[1] = target: T1, Mom (Escherichia phage Mu, UniProt P06018); test: microscale thermophoresis, fluorescently labelled Mom; assay type: binding
T1 sequence (P06018 12-241): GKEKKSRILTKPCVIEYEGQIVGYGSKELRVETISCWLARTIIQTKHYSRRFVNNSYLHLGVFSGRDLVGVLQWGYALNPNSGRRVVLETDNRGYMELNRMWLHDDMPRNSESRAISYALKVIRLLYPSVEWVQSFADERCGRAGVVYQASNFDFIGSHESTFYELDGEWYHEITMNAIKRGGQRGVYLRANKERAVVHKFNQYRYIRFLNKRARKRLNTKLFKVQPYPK

[2] = target: Mom (bacteriophage Mu), untagged, purified (bacteriophage Mu) (UniProt P06018); test: SEC
[3] = target: Mom (bacteriophage Mu), untagged, purified (bacteriophage Mu) (UniProt P06018); test: cross-linking

Molecule	Kd [1]	stoichiometry N [2]	stoichiometry N [3]
CC(=O)SCCNC(=O)CCNC(=O)[C@H](O)C(C)(C)COP(=O)(O)OP(=O)(O)OC[C@H]1O[C@@H](n2cnc3c(N)ncnc32)[C@H](O)[C@@H]1OP(=O)(O)O [acetyl CoA]	~49 µM	–	–
Mom (bacteriophage Mu), untagged, purified (from UniProt P06018 2-241) (enzyme)	–	2	2
